Measurements reported in patent US7256007B2, “Methods of regulating cytokine signalling” (The Walter and Eliza Hall Institute of Medical Research, priority 2000, dated 2007).
Square brackets hold non-standard residues; d marks the D form. Ends that are not written are not given here. pY = N[C@@H](Cc1ccc(OP(=O)(O)O)cc1)C(=O)O

T1: SOCS-3 (Mus musculus, UniProt O35718)
T1 construct: hexahistidine (pET15b) (N); made in house; host or cells: E. coli BL21 DE3 pLysS
T1 sequence (O35718 1-225): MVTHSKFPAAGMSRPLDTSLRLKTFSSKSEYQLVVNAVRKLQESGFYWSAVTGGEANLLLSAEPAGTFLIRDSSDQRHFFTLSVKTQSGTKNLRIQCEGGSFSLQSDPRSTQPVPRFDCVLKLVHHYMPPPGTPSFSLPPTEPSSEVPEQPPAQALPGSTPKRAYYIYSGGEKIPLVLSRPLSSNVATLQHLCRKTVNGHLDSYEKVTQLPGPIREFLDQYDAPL

T2: gp130(674-688) pY681 control phosphopeptide (mouse, not fully specified (N-terminus); printed as FNSKDQM(pY)SDGNFTD; also: biotinylated, site not given here)
T2 chain: FNSKDQM[pY]SDGNFTD-NH2

B1: SOCS-3 (recombinant, His-tagged) (protein)
chain: MVTHSKFPAAGMSRPLDTSLRLKTFSSKSEYQLVVNAVRKLQESGFYWSAVTGGEANLLLSAEPAGTFLIRDSSDQRHFFTLSVKTQSGTKNLRIQCEGGSFSLQSDPRSTQPVPRFDCVLKLVHHYMPPPGTPSFSLPPTEPSSEVPEQPPAQALPGSTPKRAYYIYSGGEKIPLVLSRPLSSNVATLQHLCRKTVNGHLDSYEKVTQLPGPIREFLDQYDAPL

What was measured:
SOCS-3 = molecular target: T1, SOCS-3; experiment: Biosensor (SPR) analysis of recombinant SOCS-3 binding to immobilized biotinylated phosphopeptide; parameters: species or system murine; details: non-specific control channel on the same chip
Method: Purified protein was refolded by dialysis into PBS containing 2 mM DTT, 2 mM EDTA and 0.02% v/v Tween 20. Refolded material was purified to homogeneity by ion exchange chromatography on a Mono S column (Pharmacia).
Phosphopeptides containing an N-terminal biotin moiety were immobilized onto a streptavidin-coated Biosensor chip (Pharmacia) at a density of ˜200 Resonance Units (Rus). […] Binding profiles were analyzed using the BIAevaluation software version 3.0 (Pharmacia).

EPOR/gp130Y757F = experiment: APRE-luc luciferase reporter assay in transiently transfected 293T cells, EPO stimulated; type: cell-based; details: gp130 cytoplasmic domain with Y757F mutation, 10U/ml EPO overnight
Sequence of EPOR/gp130Y757F (Q00560 640-917 Y757F limits assumed): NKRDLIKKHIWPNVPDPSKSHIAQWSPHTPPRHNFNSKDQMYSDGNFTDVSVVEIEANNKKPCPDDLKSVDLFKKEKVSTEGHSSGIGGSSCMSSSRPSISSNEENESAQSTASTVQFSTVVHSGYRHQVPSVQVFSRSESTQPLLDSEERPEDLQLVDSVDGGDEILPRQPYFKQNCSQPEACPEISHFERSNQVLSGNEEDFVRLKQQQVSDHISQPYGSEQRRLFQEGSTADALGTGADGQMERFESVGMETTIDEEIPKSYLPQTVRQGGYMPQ
Method: Generation of the expression vectors for SOCS-1 and SOCS-3, luciferase assays and Western blot analysis have been described previously (Nicholson et al., 1999). Briefly, 293T cells were transiently transfected with SOCS expression plasmids, a LIF-responsive reporter construct (APRE-luc; Endo et al., 1997) and a β-galactosidase reporter construct under a constitutive promoter (Srα-β-gal; Ogilvy et al., 1998). Luciferase activity from triplicate samples was determined and normalized against β-galactosidase activity.
It was therefore important to confirm these findings using a biological assay. A chimeric receptor was created that contained the erythropoietin receptor (EPOR) extracellular domain and the gp130 cytoplasmic domain (EPOR/gp130). A second receptor was created containing the EPO receptor extracellular domain and the gp130 cytoplasmic domain in which tyrosine 757 had been mutated to phenylalanine (EPOR/gp130Y757F). 293T cells were transiently transfected with cDNAs expressing the receptor constructs and either SOCS-3 or SOCS-1 in the presence of the APRE-luc and Srα-β-gal reporter genes. Cells were then incubated in the presence of 10U/ml EPO overnight and luciferase activity determined. Mutation of Y757 in the gp130 cytoplasmic domain has been reported to result in a hyperactive receptor complex, presumably from the loss of a negative regulator such as SHP-2. […]

[1] = molecular target: B1; experiment: competition, SPR
[2] = molecular target: T2, gp130(674-688) pY681 control …; experiment: SPR

Row | Molecule | IC50 [1] | also measured
1 | FNSKDQM(pY)SDGNFTD (FNSKDQM[pY]SDGNFTD-NH2; N-terminus assumed; SMILES CSCC[C@H](NC(=O)[C@H](CCC(N)=O)NC(=O)[C@H](CC(=O)O)NC(=O)[C@H](CCCCN)NC(=O)[C@H](CO)NC(=O)[C@H](CC(N)=O)NC(=O)[C@@H](N)Cc1ccccc1)C(=O)N[C@@H](Cc1ccc(OP(=O)(O)O)cc1)C(=O)N[C@@H](CO)C(=O)N[C@@H](CC(=O)O)C(=O)NCC(=O)N[C@@H](CC(N)=O)C(=O)N[C@@H](Cc1ccccc1)C(=O)N[C@H](C(=O)N[C@@H](CC(=O)O)C(N)=O)[C@@H](C)O) [gp30(674-688) phosphopeptide, non-cognate gp130 phosphopeptide immobilized as non-specific control] | – | specific binding of SOCS-3 to immobilized peptide (SOCS-3): no specific binding was detected
2 | SOCS-3: suppressor of cytokine signaling 3, expressed from transfected cDNA in 293T cells | – | SOCS-3 DNA giving 50% inhibition of luciferase activity (EPOR/gp130Y757F): 54 ng
3 | STASTVE[pY]STVVH-NH2 (N-terminus assumed; SMILES CC(C)[C@H](NC(=O)[C@@H](NC(=O)[C@@H](NC(=O)[C@H](CO)NC(=O)[C@H](Cc1ccc(OP(=O)(O)O)cc1)NC(=O)[C@H](CCC(=O)O)NC(=O)[C@@H](NC(=O)[C@@H](NC(=O)[C@H](CO)NC(=O)[C@H](C)NC(=O)[C@@H](NC(=O)[C@@H](N)CO)[C@@H](C)O)[C@@H](C)O)C(C)C)[C@@H](C)O)C(C)C)C(=O)N[C@@H](Cc1c[nH]cn1)C(N)=O) [STASTVE(pY)STVVH] | 77 nM | –
4 | STASTVE[pY]STVVHS-NH2 (N-terminus assumed; SMILES CC(C)[C@H](NC(=O)[C@@H](NC(=O)[C@@H](NC(=O)[C@H](CO)NC(=O)[C@H](Cc1ccc(OP(=O)(O)O)cc1)NC(=O)[C@H](CCC(=O)O)NC(=O)[C@@H](NC(=O)[C@@H](NC(=O)[C@H](CO)NC(=O)[C@H](C)NC(=O)[C@@H](NC(=O)[C@@H](N)CO)[C@@H](C)O)[C@@H](C)O)C(C)C)[C@@H](C)O)C(C)C)C(=O)N[C@@H](Cc1c[nH]cn1)C(=O)N[C@@H](CO)C(N)=O) [STASTVE(pY)STVVHS] | 61 nM | –
5 | STASTVE[pY]ATVVHSG-NH2 (N-terminus assumed; SMILES CC(C)[C@H](NC(=O)[C@@H](NC(=O)[C@@H](NC(=O)[C@H](C)NC(=O)[C@H](Cc1ccc(OP(=O)(O)O)cc1)NC(=O)[C@H](CCC(=O)O)NC(=O)[C@@H](NC(=O)[C@@H](NC(=O)[C@H](CO)NC(=O)[C@H](C)NC(=O)[C@@H](NC(=O)[C@@H](N)CO)[C@@H](C)O)[C@@H](C)O)C(C)C)[C@@H](C)O)C(C)C)C(=O)N[C@@H](Cc1c[nH]cn1)C(=O)N[C@@H](CO)C(=O)NCC(N)=O) [gp130 phosphopeptide S9A] | 72 nM | –
6 | STASTVE[pY]STAVHSG-NH2 (N-terminus assumed; SMILES CC(C)[C@H](NC(=O)[C@H](C)NC(=O)[C@@H](NC(=O)[C@H](CO)NC(=O)[C@H](Cc1ccc(OP(=O)(O)O)cc1)NC(=O)[C@H](CCC(=O)O)NC(=O)[C@@H](NC(=O)[C@@H](NC(=O)[C@H](CO)NC(=O)[C@H](C)NC(=O)[C@@H](NC(=O)[C@@H](N)CO)[C@@H](C)O)[C@@H](C)O)C(C)C)[C@@H](C)O)C(=O)N[C@@H](Cc1c[nH]cn1)C(=O)N[C@@H](CO)C(=O)NCC(N)=O) [gp130 phosphopeptide V11A] | 3400 nM | –
7 | B1 | – | binding result [2]: no binding
8 | Ac-AE[pY]STVVHSG-NH2 (SMILES CC(=O)N[C@@H](C)C(=O)N[C@@H](CCC(=O)O)C(=O)N[C@@H](Cc1ccc(OP(=O)(O)O)cc1)C(=O)N[C@@H](CO)C(=O)N[C@H](C(=O)N[C@H](C(=O)N[C@H](C(=O)N[C@@H](Cc1c[nH]cn1)C(=O)N[C@@H](CO)C(=O)NCC(N)=O)C(C)C)C(C)C)[C@@H](C)O) [AcAE(pY)STVVHSG] | 580 nM | –
